Publication PMC3361975

System: NC(=O)c1ccc[n+]([C@@H]2O[C@H](COP(=O)(O)OP(=O)(O)OC[C@H]3O[C@@H](n4cnc5c(N)ncnc54)[C@H](O)[C@@H]3O)[C@@H](O)[C@H]2O)c1
Assay: purified protein
Conditions: phosphite and NAD+ varied, 100 mM MOPS pH 7.25, 25 °C

Substance | Km
17X-PTDH (Stutzerimonas stutzeri; A319E/A325V/C336D/D13E/E130K/E175A/E332N/I150F/I313L/L276Q/M26I/Q132R/Q137R/Q215L/R275Q/R301A/V315A/V71I) | 0.216 (0.015) mM
17X-PTDH (Stutzerimonas stutzeri; A319E/A325V/C336D/D13E/E130K/E175A/E332N/I150F/I313L/L276Q/M26I/Q132R/Q137R/Q215L/R275Q/R301K/V315A/V71I) | 0.074 (0.007) mM
17X-PTDH (Stutzerimonas stutzeri; A319E/A325V/C336D/D13E/E130K/E175A/E332N/I150F/I313L/L276Q/M26I/Q132R/Q137R/Q215L/R275Q/V315A/V71I) | 0.022 (0.006) mM
